From the supplement of paper PMC9732359
± gives the uncertainty stated by the source.

Assay: protein stability index of a GFP-peptide fusion (yeast GPS) (PSI 1-4); higher = more stable; sorted into four equal gates, so the index is relative within each strain
How it was run: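 Yeast carrying a pooled library were grown to mid-log phase in leucine-free medium. Each library plasmid expresses Cherry and has a tiled 17-residue yeast protein peptide fused downstream of GFP. Cells were sorted into four equal gates by GFP/Cherry ratio, and plasmids from each gate were PCR-amplified, Illumina-sequenced and assigned to strains by barcode. Summing, across gates, the read frequency times the gate number gave each peptide's protein stability index.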

Row | Sequence | protein stability index (doa10∆) | protein stability index (pdr5∆) | protein stability index (san1∆) | protein stability index (ubr1∆)
1 | SLLESGSEILGDLKLQV [RPO21] | 3.59 ± 0.27 | 3.58 ± 0.14 | 2.53 ± 0.21 | 3.02 ± 0.18
2 | DSLKKLLPQWDDDQIES [ARP9] | 3.32 ± 0.14 | 3.17 ± 0.087 | 2.83 ± 0.071 | 3.17 ± 0.081
3 | PEESKGSFKYITARSAF [SWP82] | 2.85 ± 0.068 | 3.04 ± 0.076 | 3.1 ± 0.053 | 3.15 ± 0.06
4 | LLLSPDQWYCIDKLEDL [ITC1] | 3.06 ± 0.11 | 3.4 ± 0.11 | 3.22 ± 0.097 | 2.48 ± 0.077
5 | IAAMVAQKCGWTIPHKK [SIR2] | 2.33 ± 0.096 | 2.41 ± 0.2 | 2.06 ± 0.15 | 2.35 ± 0.051
6 | DQNPIQVVVDAITNTGP [RPS5] | 2.35 ± 0.053 | 2.79 ± 0.041 | 2.76 ± 0.061 | 2.13 ± 0.041
7 | RYFFWLQEKNSGNLPLN [RPN13] | 3.04 ± 0.16 | 3 ± 0.085 | 2.81 ± 0.063 | 2.87 ± 0.11
8 | TKQRLDAYYDLELRNSV [PRP8] | 2.64 ± 0.046 | 2.93 ± 0.039 | 2.86 ± 0.039 | 2.74 ± 0.035
9 | LADDDEERFSELFKGYL [RPL5] | 1.59 ± 0.13 | 2.05 ± 0.14 | 2.84 ± 0.2 | 3.01 ± 0.28
10 | KKKKKGSNQKPKYEPPV [RPT2] | 2.94 ± 0.11 | 2.96 ± 0.12 | 2.38 ± 0.22 | 3.12 ± 0.076
11 | YGTENKDGEDIIFNYVP [CSL4] | 3.3 ± 0.14 | 3.21 ± 0.1 | 2.92 ± 0.085 | 3.12 ± 0.065
12 | KDGAKFIEVRNFLGDKK [RPL9A] | – | – | – | 1.35 ± 0.27
13 | PAITIEKLKQFSWISVV [SIR3] | 1.16 ± 0.05 | 1.45 ± 0.055 | 1.24 ± 0.094 | 1.13 ± 0.035
14 | DKLLKRLKEKGSRVLIF [ISW2] | 1.35 ± 0.042 | 1.61 ± 0.059 | 1.36 ± 0.1 | 1.36 ± 0.052
15 | TISSKPDILATDLIREK [YCS4] | – | 2.54 ± 0.25 | 3.4 ± 0.26 | 3.09 ± 0.066
16 | GSGKSNMMDAISFVLGV [SMC1] | 3.18 ± 0.073 | 3.17 ± 0.074 | 3.24 ± 0.058 | 3.32 ± 0.043
17 | LLRYGGAFTIALAYAGT [RPN2] | 2.02 ± 0.084 | 2.27 ± 0.11 | 1.91 ± 0.12 | 2.24 ± 0.051
18 | SDDQQEAVELVIGLDSE [YML103C/NUP188] | 2.9 ± 0.17 | 3.54 ± 0.12 | 3.39 ± 0.12 | 3.38 ± 0.045
19 | MYILGMCVSKGNASLKY [YCG1] | 1.79 ± 0.083 | 2.42 ± 0.12 | 1.58 ± 0.11 | 2.17 ± 0.091
20 | IMERIKSSLSLRDHALS [ITC1] | 2.24 ± 0.12 | 2.53 ± 0.053 | 2.7 ± 0.18 | 2.65 ± 0.06
21 | GRVKALEQFMERNNIGE [YDL116W/NUP84] | 2.78 ± 0.12 | 2.68 ± 0.08 | 2.75 ± 0.15 | 3.07 ± 0.1
22 | RAGVTIPSIPNPIANHT [SNF5] | 2.46 ± 0.05 | 2.61 ± 0.039 | 2.43 ± 0.041 | 2.64 ± 0.031
23 | LNISPFTFGLTVVQVYD [RPP0] | 1.31 ± 0.043 | 1.61 ± 0.052 | 1.55 ± 0.072 | 1.2 ± 0.044
24 | MFDAFVSFYFEDGTIES [SIN4] | 2.33 ± 0.078 | 2.76 ± 0.062 | 2.52 ± 0.059 | 3.07 ± 0.062
25 | TSDSESTLYKYLKESKR [SWI3] | 3.11 ± 0.084 | 2.66 ± 0.11 | 2.89 ± 0.12 | 2.74 ± 0.054
26 | REKLAEVYKAEKDAVSV [RPS24A] | 3.27 ± 0.11 | 3.17 ± 0.069 | 3.45 ± 0.054 | 3.33 ± 0.11

Row | Sequence | protein stability index (doa10∆) | protein stability index (pdr5∆) | protein stability index (san1∆) | protein stability index (ubr1∆)
27 | GMNLLSNLSQNVVPYHR [SWI1] | 1.88 ± 0.079 | 2.88 ± 0.1 | 2.46 ± 0.098 | 2.43 ± 0.065
28 | AYHQKYVDEQSKNELKK [RPS16A] | 2.5 ± 0.093 | 2.02 ± 0.094 | 2.02 ± 0.13 | 2.94 ± 0.12
29 | KSIENPTQTKGNDAKPA [YLR335W/NUP2] | 3.12 ± 0.075 | 3.24 ± 0.058 | 3.23 ± 0.046 | 2.94 ± 0.055
30 | SDPLTVFSESCSNESFA [SNU114] | 2.83 ± 0.055 | 2.96 ± 0.057 | 2.58 ± 0.047 | 2.96 ± 0.038
31 | DKNSGVKSEVDVQVDAE [ITC1] | 2.1 ± 0.064 | 2.15 ± 0.073 | 1.79 ± 0.12 | 2.97 ± 0.065
32 | TIELAGGGYFSAAGMTA [FAS1] | 2.87 ± 0.12 | 3.19 ± 0.11 | 1.9 ± 0.16 | 2.84 ± 0.14
33 | LKSKVIDSPELLSLIST [RPN7] | 2.48 ± 0.038 | 2.63 ± 0.045 | 2.4 ± 0.049 | 2.61 ± 0.041
34 | EEVNRCYLRWQHLRNEH [SNF2] | 3.27 ± 0.07 | 3 ± 0.075 | 3.23 ± 0.071 | 3.05 ± 0.075
35 | LCLTEFENCYLEGNDIH [FAS1] | 3.02 ± 0.089 | 3.26 ± 0.076 | 3.2 ± 0.13 | 2.95 ± 0.1
36 | TDCKFIRVSGAELVQKY [RPT6] | 3.01 ± 0.14 | 3.24 ± 0.16 | 3.16 ± 0.15 | 2.93 ± 0.11
37 | YPLWVMAKQLIRLANES [CSN12] | 2.08 ± 0.07 | 1.41 ± 0.047 | 1.34 ± 0.17 | 1.4 ± 0.059
38 | DRFPLKLREPVARFLHF [ITC1] | 1.69 ± 0.076 | 1.7 ± 0.067 | 1.79 ± 0.12 | 1.91 ± 0.046
39 | DQFHRDTISAITHQLNN [RPC25] | 1.54 ± 0.049 | 2.12 ± 0.057 | 1.84 ± 0.076 | 1.67 ± 0.034
40 | DHLKLVSLFSNLRHERN [YIL149C/MLP2] | 2.41 ± 0.092 | 2.67 ± 0.19 | 2.5 ± 0.26 | 2.44 ± 0.097
41 | NNNETSKPAFSFGAKSD [YJL041W/NSP1] | 2.93 ± 0.11 | 3.1 ± 0.083 | 3.15 ± 0.067 | 3.61 ± 0.29
42 | SKILSQAPSELELQVAK [RPS7B] | 2.96 ± 0.057 | 3.07 ± 0.047 | 2.95 ± 0.063 | 3 ± 0.051
43 | LQKQMGIGSLTDLMSIV [RPC34] | 1.91 ± 0.11 | 2.04 ± 0.13 | 2.68 ± 0.12 | 1.86 ± 0.14
44 | PYDSNNSNTNLNSLSPQ [SWI1] | 2.96 ± 0.049 | 2.87 ± 0.051 | 2.76 ± 0.054 | 2.79 ± 0.04
45 | EFLPLSLHILMIFWNDI [SRB8] | 1.36 ± 0.037 | 1.34 ± 0.04 | 1.35 ± 0.062 | 1.89 ± 0.036
46 | FKATHILDFGPGGASGL [FAS1] | 2.75 ± 0.08 | 3.43 ± 0.14 | – | 2.96 ± 0.21
47 | LFGSSNNNNNNNNSNNI [YGL172W/NUP49] | 2.93 ± 0.077 | 2.33 ± 0.056 | 2.53 ± 0.086 | 2.6 ± 0.097
48 | LVCGNDSSYQDIFAVNL [RET1] | – | 2.04 ± 0.25 | 2.24 ± 0.26 | –
49 | TTQGGLTSVTRHGFNRS [RPO21] | 3.14 ± 0.088 | 3.04 ± 0.08 | 3.15 ± 0.077 | 3.26 ± 0.071
50 | DSFSVPNRLVKELQYDN [PRE2] | 3.02 ± 0.18 | 2.94 ± 0.24 | 3.09 ± 0.11 | 3.37 ± 0.29
51 | RDKAGRLAEVNLKDLNN [RPO21] | 3.15 ± 0.11 | 2.75 ± 0.083 | 2.55 ± 0.086 | 2.79 ± 0.11
52 | GDKFSEDFRIQFKTTIK [UBP6] | 3.14 ± 0.1 | 2.93 ± 0.09 | 2.32 ± 0.087 | 2.58 ± 0.059
